Where two headings read alike, the source gives them in different places. Bridges are numbered along the chain shown (N, C = ends). Roman numbers before positions name the chains, in order. Where no end group is shown, it is not given here. [ ]: non-standard residue; d: D form.

Assay in all cases: cell-based or functional assay
Assay [1] concerns the target T1, HIV-1 JRFL envelope glycoprotein gp41 (N-trimer of the prehairpin intermediate) (HIV-1 strain JRFL).
Assay [2] addresses T2, HIV-1 HXB2 envelope glycoprotein gp41 with resistance mutation Q577R (HIV-1 strain HXB2, UniProt P04578 33-856).
The target of assay [3] is T3, HIV-1 HXB2 envelope glycoprotein gp41 (N-trimer of the prehairpin intermediate) (HIV-1 strain HXB2, UniProt P04578 512-856).
Assay [4] deals with T4, HIV-1 HXB2 envelope glycoprotein gp41 with resistance mutations E560K/V570I (HIV-1 strain HXB2, UniProt P04578 33-856).
The target in assay [5] is T1, HIV-1 JRFL envelope glycoprotein gp41 …. This is another data set of the same source.
The target in assay [6] is T3, HIV-1 HXB2 envelope glycoprotein gp41 …. The source holds these as a separate data set.
The target of assay [7] is T1, HIV-1 JRFL envelope glycoprotein gp41 …. The source holds these as a separate data set.
Assay [8] addresses T2, HIV-1 HXB2 envelope glycoprotein gp41 …. This is another data set of the same source.
Assay [9] concerns the target T3, HIV-1 HXB2 envelope glycoprotein gp41 …. The source holds these as a separate data set.
Assay [10] has as its target T4, HIV-1 HXB2 envelope glycoprotein gp41 …. This is another data set of the same source.
For assay [11], the target named is T3, HIV-1 HXB2 envelope glycoprotein gp41 …. This is another data set of the same source.
Assay [12] shares this target. The source holds these as a separate data set.

B1: C5C-PIE12-trimer (peptide)
peptide 1: Ac-[dH][dP][dC][dD][dY][dP][dE][dW][dQ][dW][dL][dC][dE][dL]G[dK]-NH2
peptide 2: Ac-[dH][dP][dC][dD][dY][dP][dE][dW][dQ][dW][dL][dC][dE][dL]G[dK][dK]-NH2
modifications: disulfide I:3-I:12, II:3-II:12 (inferred); also: trimer: C-terminal Lys linked by PEG5 spacers
Turning to B1, the “IC50, JRFL pseudovirion entry” value in assay [1] and in [5] was 2.8 nM in each case. In addition, the “IC50, Q577R HXB2 pseudovirion entry” value in [2] was determined as 2960 nM. In addition, the “IC50, HXB2 pseudovirion entry” value in assay [3] is 0.33 nM. Also, in [4], the “IC50, E560K/V570I HXB2 pseudovirion entry” value came to 0.84 nM.
On to Ac-[dH][dP][dC][dD][dY][dP][dE][dW][dQ][dW][dL][dC][dE][dL]GK-NH2 (disulfide 3-12 (inferred); not fully specified (residue 16)) [Chol-PEG12-PIE12 (monomer)], for which the “IC50, HXB2 pseudovirion entry” value in [6] stood at 12 nM; in assay [3], 11 nM. For the same molecule, in assay [5], the “IC50, JRFL pseudovirion entry” value worked out at 200 nM.

B2: PEG5-ΔHP-PIE12-trimer (peptide)
peptide: [dC][dD][dY][dP][dE][dW][dQ][dW][dL][dC][dE][dL]GK
modifications: disulfide 1-10 (inferred); not fully specified (residue 14); also: homotrimer on trimethylolethane-triNHS ester scaffold
Consider B2, for which the “IC50, HXB2 pseudovirion entry” value in assay [6] was 380 nM.
Ac-[dH][dP][dC][dD][dY][dP][dE][dW][dQ][dW][dL][dC][dE][dL]G[dK]-NH2 (disulfide 3-12 (inferred)) [PIE12]: the “IC50, JRFL pseudovirion entry” value in [1] is 578 nM; in assay [5], 580 nM.

B3: PEG4-PIE12-trimer (peptide)
peptide: Ac-[dH][dP][dC][dD][dY][dP][dE][dW][dQ][dW][dL][dC][dE][dL]GK-NH2
modifications: disulfide 3-12 (inferred); not fully specified (residue 16); also: homotrimer on trimethylolethane-triNHS ester scaffold
As for B3, in [6], the “IC50, HXB2 pseudovirion entry” value was determined as 0.72 nM. In assay [7], the “IC50, JRFL pseudovirion entry” value came to 2.1 nM. Also, the “IC50, antiviral potency, Q577R (HXB2 background)” value in [8] was over 3000 nM. Moreover, in assay [9], the “IC50, antiviral potency, WT HXB2” value came out at 0.72 nM. In assay [10], the “IC50, antiviral potency, E560K/V570I (HXB2 background)” value stood at 0.89 nM.
As to Ac-[dH][dP][dC][dD][dY][dP][dE][dW][dQ][dW][dL][dC][dE][dL]GK-NH2 (disulfide 3-12 (inferred); not fully specified (residue 16)) [Chol-PEG24-PIE12 (monomer)], the “IC50, HXB2 pseudovirion entry” value in assay [6] worked out at 0.64 nM; in assay [3], 0.4 nM.
In the case of Ac-[dH][dP][dC][dD][dY][dP][dE][dW][dQ][dW][dL][dC][dE][dL]GK-NH2 (disulfide 3-12 (inferred); not fully specified (residue 16)) [Chol-PEG2-PIE12 (monomer)], the “IC50, HXB2 pseudovirion entry” value in assay [6] came to 69 nM; in [3] it was 58 nM.

B4: PEG4-ΔHP-PIE12-trimer (peptide)
peptide: [dC][dD][dY][dP][dE][dW][dQ][dW][dL][dC][dE][dL]GK
modifications: disulfide 1-10 (inferred); not fully specified (residue 14); also: homotrimer on trimethylolethane-triNHS ester scaffold
B4: the “IC50, HXB2 pseudovirion entry” value in [6] came to 300 nM.
In the case of [dC][dD][dY][dP][dE][dW][dQ][dW][dL][dC][dE][dL]G[dK] (disulfide 1-10 (inferred)) [ΔHP-PIE12], in assay [6], the “IC50, HXB2 pseudovirion entry” value was found to be 3100 nM. Further, the “fold loss of potency against PIE12” value in [11] was 84 fold.

B5: PIE7-GK short claw (peptide)
peptide: Ac-G[dA][dC][dD][dY][dP][dE][dW][dQ][dW][dL][dC][dA][dA]G[dK]-NH2
modifications: disulfide 3-12 (inferred); also: linked directly to trifunctional crosslinker TSAT
For B5, the “IC50, HXB2 pseudovirion entry” value in assay [12] was 0.23 nM. For the same molecule, the “IC50, JRFL pseudovirion entry” value in [1] was 86.6 nM.
For the molecule Ac-[dK]G[dA][dC][dD][dY][dP][dE][dW][dR][dW][dL][dC][dA][dA][dA]-NH2 (disulfide 4-13 (inferred); also: dimer, Lys crosslinked by PEG) [PEG-(PIE2-AAA)2], in assay [11], the “IC50, pseudovirion entry” value is 21 nM and the “fold improvement of IC50 over the corresponding monomer” value is about 70 fold.

B6: Chol-PEG36-PIE12-trimer (peptide)
peptide: Ac-[dH][dP][dC][dD][dY][dP][dE][dW][dQ][dW][dL][dC][dE][dL]GK-NH2
modifications: disulfide 3-12 (inferred); not fully specified (residue 16); also: trimer on scaffold via PEG4, fourth arm PEG36 (PEG24 + PEG12 through D-Cys) carrying thiocholesterol
In the case of B6, the “IC50, Q577R HXB2 pseudovirion entry” value in [2] was found to be 2.7 nM. Further, the “IC50, HXB2 pseudovirion entry” value in assay [3] was found to be 0.0054 nM. In addition, the “IC50, E560K/V570I HXB2 pseudovirion entry” value in assay [4] came out at 0.0045 nM.

B7: N9N(PIE7)2 (peptide)
peptide: Ac-[dK]G[dA][dC][dD][dY][dP][dE][dW][dQ][dW][dL][dC][dA][dA]-NH2
modifications: disulfide 4-13 (inferred); also: dimer, N- to N-terminal Lys crosslinked by Bis-dPEG9 NHS ester
With B7, the “IC50, HXB2 pseudovirion entry” value in assay [12] came to 1.9 nM. Further, the “IC50, JRFL pseudovirion entry” value in assay [1] is 2300 nM. In addition, in assay [11], the “fold improvement of IC50 over the corresponding monomer” value was about 325 fold.

The values above are taken from patent US20140323392A1 (UNIVERSITY OF UTAH RESEARCH FOUNDATION, published 2014).
